Our source for the BINDING and FRET efficiency values is paper PMC10375638.

The target in the experiment is T1, …3 (SEP3) fused to mVenus, expressed in N. benthamiana (Arabidopsis thaliana), O22456.
T1 chain: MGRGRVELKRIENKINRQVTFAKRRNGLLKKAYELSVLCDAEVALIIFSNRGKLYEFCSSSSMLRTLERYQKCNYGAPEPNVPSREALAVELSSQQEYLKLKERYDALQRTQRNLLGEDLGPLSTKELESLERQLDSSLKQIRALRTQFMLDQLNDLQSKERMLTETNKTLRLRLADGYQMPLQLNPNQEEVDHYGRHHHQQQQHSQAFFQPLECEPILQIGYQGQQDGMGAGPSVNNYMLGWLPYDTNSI
The experiment in a line: FRET or BRET; FLIM-FRET with one pattern analysis (OPA) in nuclei of transiently expressing N. benthamiana leaf epidermis cells; donor mVenus fusion, acceptor mCherry fusion; BINDING = relative amplitude of the FRET fraction; nucleoli excluded; FRET efficiency only for nuclei with BINDING above 10%. The settings on record: remark: other sources report otherwise. On the technique in general: In BRET a luciferase serves as donor, and the signal depends on an acceptor being close.

B1: …3 (SEP3) fused to mVenus, expressed in N. benthamiana, O22456 1-251 (natural protein)
chain: T1 chain
As to B1, the BINDING was 28.1% and the FRET efficiency was found to be 38.5%.
